Source: publication doi:10.1101/2021.01.22.427567 (bioRxiv, 2021)

Molecular target: SARS-CoV-2 S trimer (SARS-CoV-2, wild-type (Wuhan-Hu-1 …, UniProt P0DTC2))
Assay: SPR

B1: C121 IgG (antibody, V domains shown)
VH: not shown
VL: QSALTQPASVSGSPGQSITISCTGTSSDVGSYNLVSWYQQHPGKAPKLMIYEGSKRPSGVSNRFSGSKSGNTASLTISGLQAEDEADYYCCSYAGSSTLVFGGGTKLTVL
- binding result: binds
